Source: patent publication US20210087522

Key:
[1] = biological target: T1, SFACP, ACP of the FAS from Synechocystis
T1 chain: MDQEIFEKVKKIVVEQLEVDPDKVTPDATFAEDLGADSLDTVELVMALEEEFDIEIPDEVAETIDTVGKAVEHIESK

[2] = biological target: T2, FisPCP, PCP of the shinorine gene cluster from Fischerella
T2 chain: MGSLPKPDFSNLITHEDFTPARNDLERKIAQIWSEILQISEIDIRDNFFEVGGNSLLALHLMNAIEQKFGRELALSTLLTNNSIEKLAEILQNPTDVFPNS

[3] = biological target: ScACP, ACP of a putative concanamycin gene cluster from Streptomyces coelicolor A(3)2
[4] = biological target: T3, APACP, ACP of the glycolipid PKS in Anabaena
T3 chain: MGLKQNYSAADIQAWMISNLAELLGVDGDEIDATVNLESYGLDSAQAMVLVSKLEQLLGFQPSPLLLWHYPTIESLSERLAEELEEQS

[5] = biological target: AprACP, ACP of the apratoxin (PK/NRP) gene cluster in Lyngbya sp.
[6] = biological target: T4, FNsACP, homolog of ArCPNp from Fischerella
T4 chain: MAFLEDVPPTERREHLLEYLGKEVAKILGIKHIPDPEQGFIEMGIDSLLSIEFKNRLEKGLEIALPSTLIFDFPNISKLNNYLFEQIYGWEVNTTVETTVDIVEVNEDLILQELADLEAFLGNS

[7] = biological target: T5, SsPCP, PCP of a thaxtomin cluster from Streptomyces scabiei 87.22
T5 chain: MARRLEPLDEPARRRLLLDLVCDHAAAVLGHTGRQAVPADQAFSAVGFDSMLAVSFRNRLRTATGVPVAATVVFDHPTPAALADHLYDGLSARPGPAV

[8] = biological target: T6, APNPCP, CP of an uncharacterized NRP/PK gene cluster from Anabaena
T6 chain: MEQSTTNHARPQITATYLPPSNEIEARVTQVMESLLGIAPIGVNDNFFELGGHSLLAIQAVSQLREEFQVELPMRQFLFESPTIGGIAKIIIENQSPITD

[9] = biological target: T7, AFACP, ACP of the FAS from Anabaena
T7 chain: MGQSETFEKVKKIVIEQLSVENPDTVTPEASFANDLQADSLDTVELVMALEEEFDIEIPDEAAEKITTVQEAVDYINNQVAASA

[10] = biological target: T8, MACP, CP of an uncharacterized NRP/PK gene cluster from M. aeruginosa NIES843
T8 chain: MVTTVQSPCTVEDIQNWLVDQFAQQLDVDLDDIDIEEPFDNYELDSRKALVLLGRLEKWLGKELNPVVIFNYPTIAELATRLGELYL

[11] = biological target: T9, FNPCP, CP of an uncharacterized NRP gene cluster from Fischerella
T9 chain: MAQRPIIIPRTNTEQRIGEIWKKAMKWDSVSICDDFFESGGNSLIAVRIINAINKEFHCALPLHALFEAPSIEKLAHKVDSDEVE

B1: AvPPT, Sfp-like phosphopantetheinyl transferase (PPTase) from Anabaena variabilis ATCC29413 (protein)
chain: MLQHTWLPKPPNLTLLSDEVHLWRIPLDRPESQLQHLAATLSSDELARANRFYFPEHRQRFTAGRGILRSILGLYLGVEPKQVKFEYESRGKPVLGDRFADSGLLFNLSHSQNLGLCAVNYTRQIGIDLEYLRPTSDLESLAKRFFLPREYELLRSLPDEQKQKIFFRYWTCKEAYLKATGDGIAKLEEIEIALTPTEPAKLQTTPAWSLLELVPDDNCVAAVAVAGFGWQPKFWQY
With B1 the “phosphopantetheinylation of CP (apo to holo), LC-MS” value (from here on “phosphopantetheinylation of CP”) [1] was “APPT, AvPPT, MPPT and Sfp functionalized all substrates”, the “phosphopantetheinylation of CP” value [2] was “APPT, AvPPT, MPPT and Sfp functionalized all substrates” and the “phosphopantetheinylation of CP” value [3] was “APPT, AvPPT, MPPT and Sfp functionalized all substrates”. The “phosphopantetheinylation of CP” value [4] was “APPT, AvPPT, MPPT and Sfp functionalized all substrates”, the “phosphopantetheinylation of CP” value [5] was “APPT, AvPPT, MPPT and Sfp functionalized all substrates” and the “phosphopantetheinylation of CP” value [6] was “APPT, AvPPT, MPPT and Sfp functionalized all substrates”. The “phosphopantetheinylation of CP” value [7] was “APPT, AvPPT, MPPT and Sfp functionalized all substrates”, the “phosphopantetheinylation of CP” value [8] was “APPT, AvPPT, MPPT and Sfp functionalized all substrates” and the “phosphopantetheinylation of CP” value [9] was “APPT, AvPPT, MPPT and Sfp functionalized all substrates”. The “phosphopantetheinylation of CP” value [10] was “APPT, AvPPT, MPPT and Sfp functionalized all substrates” and the “phosphopantetheinylation of CP” value [11] was “APPT, AvPPT, MPPT and Sfp functionalized all substrates”.
